Tests used:
[1] = biological target: PaHigA (Pseudomonas aeruginosa PAO1) (UniProt Q9HVC1); assay: ITC; settings: ITC: 20 mM Tris pH 8.0, 100 mM NaCl, 5% glycerol, 20 C, 400 uM DNA into 100 uM PaHigA; EMSA: DNA annealed in 10 mM NaCl, 20 mM Tris pH 8.0, 30 min at room …
[2] = biological target: the molecule itself; assay: SAXS; apo PaHigA in solution at 1, 3 and 5 mg/ml, 22°C; oligomeric state from the fit to the dimer's theoretical curve and from the calculated molecular mass
[3] = biological target: PaHigA (Pseudomonas aeruginosa PAO1, UniProt Q9HVC1 1-101); assay: crystal structure; 2.50 A; water-mediated contacts; ITC: 20 mM Tris pH 8.0, 100 mM NaCl, 5% glycerol, 20 C, 400 uM DNA into 100 uM PaHigA; EMSA: DNA annealed in 10 mM NaCl, 20 mM Tris pH 8.0, 30 min at room temperature, 5% native gel at 20 C; settings: protein: recombinant; tags: C-terminal His6; chain copies: 4

Molecule: PhigBA 28-bp duplex
- Ka [1]: 7.5e+13 M^-2

B1: PaHigA (Pseudomonas aeruginosa antitoxin HigA) (natural protein, Pseudomonas aeruginosa PAO1, UniProt Q9HVC1 1-101, looked up)
chain: MATNGMRPIHPGEILRDEFLMEFDISPAALARALKVSAPTVNDIVREQRGISADMAIRLGRYFDTSAQFWMNLQSEYSLATAYAANGKQIEHEIEPLLAHG
notes: Antitoxin HigA of P. aeruginosa PAO1, gene higA (PA4674), full length amplified from the PAO1 genome; Cloned NcoI/BamHI into pET28b with a C-terminal His tag; the construct comes from Guo et al., 2019; also called PaHigA-His; apo PaHigA; source: E. coli BL21(DE3) pLysS, purified (nickel-nitrilotriacetic acid resin, gel filtration on Superdex 200); not shown: His6, C-terminal, kept
- stoichiometry N [2]: 2

B2: PhigBA 18-bp duplex (dsDNA)
DNA 1: ACGCTTAACGTTAAGGGT
DNA 2: ACCCTTAACGTTAAGCGT
- binding result [3]: binds

From PMC6987408, “Structural Insights Into the Transcriptional Regulation of HigBA Toxin–Antitoxin System by Antitoxin HigA in Pseudomonas aeruginosa” (Frontiers in Microbiology, 2019)
